Source: US20230048360A1 (EUREKA THERAPEUTICS, published 2023)
Where two headings read alike, the source gives them in different places.

What was measured:
[1] = biological target: T1, biotinylated GPC3-51mer fragment (human, biotinylated (site not stated)); assay: phage ELISA on biotinylated GPC3-51mer
T1 construct: Synthesized by Elim Biopharmaceuticals; also called bt-GPC3-51mer; hGPC3-51mer fragment
T1 peptide: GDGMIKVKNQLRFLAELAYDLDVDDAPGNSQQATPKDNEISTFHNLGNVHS

[2] = biological target: T2, cell surface-bound human GPC3 on GPC3+ HepG2 cells (human, UniProt P51654 25-560, GPI anchor and heparin sulfate side chains, as the filing describes native GPC3); assay: FACS on GPC3+ HepG2 cells, labelled on the sheet GPC3A L2K against control L2K; control L2K median 93.8; axis PE-A
T2 construct: Endogenous GPC3 of the HepG2 line; also called Glypican 3; native GPC3
Method: (§1) APC-conjugated anti-His tag mouse antibody (R&D Systems) was added in a volume of 100 μl, a 20-fold dilution of 5% FBS in PBS and 0.05% NaN₃ and incubated for 1 hour at 4° C. in the dark, then washed twice with PBS. The cells were fixed in 3-fold dilution of fixation buffer (BioLegend) in PBS in a volume of 150 μl.

[3] = biological target: T2, cell surface-bound human GPC3 on GPC3+ …; assay: flow cytometry at 10 µg/mL, PE anti-mouse IgG detection
Method: Anti-GPC3 mIgG1 antibodies were tested for the binding towards GPC3-positive HepG2 and GPC3-negative SK-Hep1 cells by flow cytometry. 10 μg/mL of constructed antibody was added to cells on ice for 1 hour.

[4] = biological target: T2, cell surface-bound human GPC3 on GPC3+ …; assay: apparent Kd from FACS on GPC3+ HepG2 cells; the row is GC33 L2K by paragraph 806
Method: (§2) APC-conjugated anti-His tag mouse antibody (R&D Systems) was added in a volume of 100 μl, a 20-fold dilution of 5% FBS in PBS and 0.05% NaN₃ and incubated for 1 hour at 4° C. in the dark, then washed twice with PBS. The cells were fixed in 3-fold dilution of fixation buffer (BioLegend) in PBS in a volume of 150 μl. As a separate control, HepG2 cells were also incubated with APC-conjugated anti-His tag mouse antibody (R&D Systems) in the absence of any L2K bispecific antibody.

[5] = biological target: T2, cell surface-bound human GPC3 on GPC3+ …; assay: FACS titration on GPC3+ HepG2 cells, anti-His detection; the row is GC33 L2K by paragraph 806
Method: as §2

[6] = biological target: T3, biotinylated rat GPC3 (rat, UniProt P13265 25-558, limits assumed, biotinylated (site not stated)); assay: ELISA, biotinylated rat GPC3 on streptavidin plate
T3 construct: also called rat bt-GPC3; rat GPC3 peptide
T3 sequence (P13265 25-558 limits assumed): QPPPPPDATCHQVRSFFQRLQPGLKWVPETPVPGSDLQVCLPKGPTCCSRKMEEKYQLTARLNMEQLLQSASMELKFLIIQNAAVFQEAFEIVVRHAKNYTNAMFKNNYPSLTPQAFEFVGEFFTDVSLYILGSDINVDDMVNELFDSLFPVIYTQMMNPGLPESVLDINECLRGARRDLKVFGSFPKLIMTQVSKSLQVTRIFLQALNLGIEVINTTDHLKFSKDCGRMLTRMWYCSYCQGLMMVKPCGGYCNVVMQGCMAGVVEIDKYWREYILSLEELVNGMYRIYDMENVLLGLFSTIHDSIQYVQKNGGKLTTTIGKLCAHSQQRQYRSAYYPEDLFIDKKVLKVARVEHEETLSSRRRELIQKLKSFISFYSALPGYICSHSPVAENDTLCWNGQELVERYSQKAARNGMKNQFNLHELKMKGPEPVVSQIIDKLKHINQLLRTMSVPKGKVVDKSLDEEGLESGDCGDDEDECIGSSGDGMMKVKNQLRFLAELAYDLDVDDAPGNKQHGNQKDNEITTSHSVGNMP

[7] = biological target: T2, cell surface-bound human GPC3 on GPC3+ …; assay: FACS, phage on GPC3+ HepG2 cells
Method: The E-APLPHA™ scFv phage libraries were screened (panned) against human GPC3 by co-incubation with recombinant GPC3-expressing SK-Hep1 cells (SK-Hep1-GPC3), then confirmed by binding to GPC3+ HepG2 cells, both with flow cytometry (see Methods). 0.2 million SK-Hep1-GPC3 cells were co-incubated with the phage library (about 1×10⁷ pfu) for 1 hours at 4° C. The cell/phage mixture was washed in PBST, incubated with mouse anti-M13 antibody for 1 hour at 4° C., washed again in PBST, then incubated for 30 minutes in the dark at 4° C. with PE-conjugated anti-mouse IgG, and subjected to FACS analysis.
FACS was performed as described in Methods. […] Then cells were washed with PBS and fixed.

[8] = biological target: T4, biotinylated recombinant human GPC3(560) (human, biotin on the C-terminal BirA substrate peptide ; Biotin on a lysine of the C-terminal BirA substrate peptide, which is not in the letters.); assay: SPR, Biacore X100, single-cycle kinetics, bt-GPC3(560) captured on chip, 1:1 model
T4 construct: Made in E. coli BL21 (pET-27b) from inclusion bodies and biotinylated with BirA; also called bt-GPC3(560); soluble bt-GPC3(560) protein
Method: All of the proteins used in the assay were diluted in HBS-E buffer prior to use. Briefly, 5-10 μg/ml of bt-GPC3₍₅₆₀₎ was immobilized onto a sensor chip pre-functionalized with CAPture Reagent and injected onto the flow cell. Affinity of the L2K bispecific antibodies for immobilized antigen was measured by injection of the various bispecific antibodies at 0.3-5 mg/ml with a 90 second association phase followed by a 90 second dissociation phase at a flow rate of 30 μl/min. At the end of each run, the surface of the sensor chip was regenerated using the reagents provided in the Biotin CAPture kit. Binding constants were determined by nonlinear regression analysis using a 1:1 binding model (BIACORE™ X-100 evaluation software, FIGS. 15A and 15B). The association-on-rate-kₒₙ, affinity constant-kₐ, dissociation constant-kd, and equilibrium dissociation constant-Kd were then calculated for each L2K clone (Table 14).

[9] = biological target: T2, cell surface-bound human GPC3 on GPC3+ …; assay: FACS titration on GPC3+ HepG2 cells, anti-His detection
Method: as §2

[10] = biological target: T2, cell surface-bound human GPC3 on GPC3+ …; assay: apparent Kd from FACS on GPC3+ HepG2 cells
Method: as §2

[11] = biological target: T2, cell surface-bound human GPC3 on GPC3+ …; assay: FACS on GPC3+ HepG2 cells, labelled on the sheet GPC3A L2K against control L2K; control L2K median 93.8; axis PE-A; remark: listed apart in the source
Method: as §1

[12] = biological target: T5, full-length human GPC3 over-expressed on SK-Hep1-GPC3 cells (human, UniProt P51654 25-560); assay: FACS, GPC3A L2K on SK-Hep1-GPC3 cells, APC anti-His; same L2K on GPC3-negative SK-Hep1 median 61.6
T5 construct: also called GPC3 over-expressing SK-Hep1 cells
Method: Cells were then washed once with PBS. APC-conjugated anti-His tag mouse antibody (R&D Systems) was added to the washed cells in a volume of 100 μl, at 20-fold dilution of 5% FBS in PBS and 0.05% NAN₃ and incubated for 1 hour at 4° C. in the dark. The cells were then washed twice with PBS. The cells were fixed in 3-fold dilution of fixation buffer (BioLegend) in PBS in a volume of 150 μl.

B1: GPC3A-37 phage clone (scFv)
scFv: QSVLTQPPSVSAAPGQRVTISCSGTRSNIGSDYVSWYQHLPGTAPKLLVYGDNLRPSGIPDRFSASKSGTSATLGITGLQTGDEADYYCGTWDYTLNGVVFGGGTKLTVLGSRGGGGSGGGGSGGGGSLEMAQVQLVESGGGLVQPGGSLRLSCAASGFTFSSYAMSWVRQAPGKGLEWVSVIYSGGSSTYYADSVKGRFTISRDNSKNTLYLQMNSLRAEDTAVYYCARTSYLNHGDYWGQGTLVTVSS
notes: also called GPC3A-037
binding result [1]: no binding

B2: GPC3A-42 phage clone (scFv)
scFv: SYVLTQPPSASGTPGQRVTISCFGSSSDIGSNSVFWYQQLPGAAPKLLIYSTQYRPSGVPDRFSGSKSGTSASLAISGLQSEDEAEYHCATWDDSLNGYVFGSGTKVTVLGSRGGGGSGGGGSGGGGSLEMAQVQLQQSGAEVKKPGASVKVSCKASGYSFTGYYVYWMRQAPGKGLEWMGWMNPRSGGTNYAQKFQGRVTMTRDTSISTAYMELSRLTSDDTAVYYCARSSYYWADSWGQGTLVTVSS
notes: also called GPC3A-042
binding result [1]: no binding

B3: #64 GPC3A L2K (bispecific antibody)
tandem di-scFv: LPVLTQPPSLSVAPGKTARLTCGGNNIGSKSVHWYHQKPGQAPVLVVYDDTDRPSGIPERFSGSNSGNTAALTISRVEVGDEADYYCQVWDRSSAHWVFGGGTKLTVLGSRGGGGSGGGGSGGGGSLEMAQMQLVQSGAEVKKPGASVKVSCKASGYTFTIYGISWVRQAPGQGLEWMGWISPYNDNTIYAQKVQGRVTMTTDTSTSTAYMELRSLRSDDTAVYYCARMGVGWGYAQDSWGQGTLVTVSSTSGGGGSDVQLVQSGAEVKKPGASVKVSCKASGYTFTRYTMHWVRQAPGQGLEWIGYINPSRGYTNYADSVKGRFTITTDKSTSTAYMELSSLRSEDTATYYCARYYDDHYCLDYWGQGTTVTVSSGEGTSTGSGGSGGSGGADDIVLTQSPATLSLSPGERATLSCRASQSVSYMNWYQQKPGKAPKRWIYDTSKVASGVPARFSGSGSGTDYSLTINSLEAEDAATYYCQQWSSNPLTFGGGTKVEIKHHHHHH
notes: also called GPC3A-64 L2K; GPC3-64 L2K
Median : PE-A [2]: 6600

B4: anti-GPC3 mIgG1 clone A-64 (antibody, V domains shown)
VH: QMQLVQSGAEVKKPGASVKVSCKASGYTFTIYGISWVRQAPGQGLEWMGWISPYNDNTIYAQKVQGRVTMTTDTSTSTAYMELRSLRSDDTAVYYCARMGVGWGYAQDSWGQGTLVTVSS
VL: LPVLTQPPSLSVAPGKTARLTCGGNNIGSKSVHWYHQKPGQAPVLVVYDDTDRPSGIPERFSGSNSGNTAALTISRVEVGDEADYYCQVWDRSSAHWVFGGGTKLTVLG
notes: Fused to mouse IgG1 heavy chain and light chain constant regions
binding result [3]: binds

B5: GC33 L2K (bispecific antibody, V domains shown)
VH: QVQLQQSGAELVKPGASVKLSCKASGYTFTDYEMHWVKQTPVHGLKWMIGALDPKTGDTAYSQKFKGKATLTADKSSSTAYMELRSLTSEDSAVYYCTRFYSYTYWGQGTLVTVSA
VL: DVVMTQTPLSLPVSLGDQASISCRSSQSLVHSNGNTYLHWYLQKPGQSPKLLIYKVSNRFSGVPDRFSGSGSGTDFTLKISRVEAEDLGVYFCSQNTHVPPTFGSGTKLEIK
notes: Tested as a single-chain tandem di-scFv: scFv of GC33 fused to an anti-human CD3 epsilon scFv, with a hexahistidine tag; also called GC33 antibody converted to an L2K
Kd [4]: 2.7 nM | EC50 [5]: 0.14 µg/mL

B6: GPC3A-53 mIgG1 clone (antibody, V domains shown)
VH: QLQLQESGPGLVKPSETLSLTCTVSGGSISSSSYYWGWIRQPPGKGLEWIGSIYYSGSTYYNPSLKSRVTISVDTSKNQFSLKLSSVTAADTAVYYCARWWSGSYDTWGQGTLVTVSS
VL: QSVLTQPPSASAAPGQRVTISCSGTSSNIGSNYVWWYQQLPGAAPRLLIYGNSNRPSGVPDRFSGSKSGTSASLAITGLQAEDEADYYCQSYDSSLSGSNVFGTGTKVTVLG
notes: Mouse chimeric IgG1; also called GPC3A mIgG1 clone A-53
binding result [6]: no binding (tested: 5 µg/mL)

B7: GPC3A-62 phage clone (scFv)
scFv: QSVLTQPPSVSGAPGQRVTISCTGSSSNIGAGYDVHWYQQLPGTAPKLLIYGNSNWPSGVPDRFSGSKSGTSASLAITGLRAEDEADYYCQSYDSSLSGSYVFGTGTKVTVLGSRGGGGSGGGGSGGGGSLEMAQMQLVQSGSELKKPGASVKVSCKASGGTFSSYAISWVRQAPGQGLEWMGGIIPKIGTANYAQKFQGRVTITADESTSTAYMELSSLRSEDTAMYYCARMYMDMGWGWGYWDWWGQGTLVTVSS
notes: also called GPC3A-062
binding result [7]: binds

B8: GPC3A-58 L2K (bispecific antibody)
chain: QSVLTQPPSVSVAPGKTARITCGGNNIGSKSVHWYQQKPGQAPVLVVYDDSDRPSGIPERFSGSNSGNTATLTISRVEAGDEADYYCQVWDSSSDHVFGTGTKVTVLGSRGGGGSGGGGSGGGGSLEMAQVQLVQSGADVRKPGASVKVSCKASGYTFASHGISWVRQAPGQGLEWLGWISPYTGNTNYAQKFQGRVTMATDTSTSTAYMELRSLRSDDTAIYYCARGKRTLASCFDYWGQGTLVTVSSTSGGGGSDVQLVQSGAEVKKPGASVKVSCKASGYTFTRYTMHWVRQAPGQGLEWIGYINPSRGYTNYADSVKGRFTITTDKSTSTAYMELSSLRSEDTATYYCARYYDDHYCLDYWGQGTTVTVSSGEGTSTGSGGSGGSGGADDIVLTQSPATLSLSPGERATLSCRASQSVSYMNWYQQKPGKAPKRWIYDTSKVASGVPARFSGSGSGTDYSLTINSLEAEDAATYYCQQWSSNPLTFGGGTKVEIKHHHHHH
notes: also called GPC3A L2K bispecific antibody #58
Kd [8]: 5.1 nM | koff [8]: 0.00188 s⁻¹ | kon [8]: 368000 M⁻¹ s⁻¹ | EC50 [9]: 0.12 µg/mL | Kd [10]: 2.4 nM | Median : PE-A [2]: 8030

B9: GPC3A-38 phage clone (scFv)
scFv: QSVLTQPPSVSVAPGKTARITCGGNNIGSKSVHWYQQKPGQAPVLVIYYDSDRPSGIPERFSGSNSGNTATLTISRVEAGDEADYYCQVWDSSSDHVVFGGGTKLTVLGSRGGGGSGGGGSGGGGSLEMAQVQLVQSGAEVKKPGASVKVSCKASGYTFTSYYMHWVRQAPGQGLEWMGIINPSGGSTSYAQKFQGRVTMTRDTSTSTVYMELSSLRSEDTAVYYCARKVTGYDSWGQGTLVTVSS
notes: also called GPC3A-038
binding result [7]: binds

B10: anti-GPC3 mIgG1 clone A-51 (antibody, V domains shown)
VH: QVQLVQSGAEVKKPGSSVKVSCKASGGAFSSYAISWVRQAPGQGLEWMGGIIPIFGTANYAQKFQGRVTITADESTSTAYMELSSLRSEDTAVYYCARMLYLSGRYYWDSWGQGTLVTVSS
VL: QAVLTQPSSASGAPGQRVTISCTGGSSNIGAGYDVHWYQQLPGTAPKLLIYGNSNRPSGVPDRFSGSKSGTSASLAITGLQAEDEADYYCQSYDSSLSGYVFGTGTKVTVLG
notes: as for B4
binding result [3]: binds

B11: GPC3A-43 phage clone (scFv)
scFv: QSVLTQPPSASGTPGQRVTISCSGSSSNIGTNYVYWYQQLPGTAPKLIIYRNNQRPSGVPDRFSGSESGTSASLAISGLRSEDEADYYCAVWDDSLSGVVFGGGTKLTVLGSRGGGGSGGGGSGGGGSLEMAEVQLVQSGAEVKKPGATVKVSCKVSGYTFTDYYMHWVQQAPGKGLEWMGLVDPEDGETIYAEKFQGRVTITADTSTDTAYMELSSLRSEDTAVYYCARELRDVAYYPWGVEDFWGQGTLVTVSS
notes: also called GPC3A-043
binding result [1]: no binding

B12: GPC3A-46 L2K (bispecific antibody)
chain: QAVLTQPPSVSGTPGQRVTISCSGSSSNFGSNTVHWYQQVPGTAPKLLIFSNTQRPSEIPDRFSGSKSGTSASLAISGLQSEDEADYYCAAWDDSLTGVVFGGGTKLTVLGSRGGGGSGGGGSGGGGSLEMAQVQLVQSGAEVKKPGASVTVSCKASGYRFSNYGVSWVRQAPGQGLEWMGWISGSNGNTNYAQKFLGRVTMTTDTSTTTAYMELSSLRSDDTAVYYCARGNRRYYSPIIDPWGQGTLVTVSSTSGGGGSDVQLVQSGAEVKKPGASVKVSCKASGYTFTRYTMHWVRQAPGQGLEWIGYINPSRGYTNYADSVKGRFTITTDKSTSTAYMELSSLRSEDTATYYCARYYDDHYCLDYWGQGTTVTVSSGEGTSTGSGGSGGSGGADDIVLTQSPATLSLSPGERATLSCRASQSVSYMNWYQQKPGKAPKRWIYDTSKVASGVPARFSGSGSGTDYSLTINSLEAEDAATYYCQQWSSNPLTFGGGTKVEIKHHHHHH
Kd [8]: 3.2 nM | koff [8]: 0.00129 s⁻¹ | kon [8]: 399000 M⁻¹ s⁻¹ | Median : PE-A [11]: 9860 | Median : APC-A [12]: 657 | EC50 [9]: 0.05 µg/mL | Kd [10]: 1 nM
